This assay addresses Delta-C70-Ferritin-HexaPro (DCFHP), from Expi293F cells (SARS-CoV-2 (Wuhan-1 isolate) | H. pylori) (UniProt P0DTC2). In words: SEC-MALS. A general note: Size exclusion chromatography separates by hydrodynamic size, large species first.

Usually stoichiometry N stands for the number of molecules, sites or subunits per partner or assembly.

As for “Delta-C70-Ferritin-HexaPro (DCFHP), from Expi293F cells (from UniProt P0DTC2 14-1146; Q9ZLI1 5-167)”, the stoichiometry N was 24.

The values above are taken from publication PMC10110616.
